# Values quoted from earlier work in patent US20240209043A1, “NON-ANTIBODY BINDING PEPTIDES AND THEIR ANALOGS DUAL-TARGETING TO PD-1 AND PD-L1, AND USES THEREOF” (ORAL SUBSIDIARY SUN YAT-SEN UNIVERSITY HOSPITAL, priority 2021, published 2024).
# B1: Camrelizumab (antibody, chains of the INN, looked up, V domains shown)
# VH: EVQLVESGGGLVQPGGSLRLSCAASGFTFSSYMMSWVRQAPGKGLEWVATISGGGANTYYPDSVKGRFTISRDNAKNSLYLQMNSLRAEDTAVYYCARQLYYFDYWGQGTTVTVSS
# VL: DIQMTQSPSSLSASVGDRVTITCLASQTIGTWLTWYQQKPGKAPKLLIYTATSLADGVPSRFSGSGSGTDFTLTISSLQPEDFATYYCQQVYSIPWTFGGGTKVEIK
# notes: marketed IgG4 antibody drug targeting PD-1
# Biological target: PD-1 (Homo sapiens, UniProt Q15116)
# Sequence (Q15116 25-288): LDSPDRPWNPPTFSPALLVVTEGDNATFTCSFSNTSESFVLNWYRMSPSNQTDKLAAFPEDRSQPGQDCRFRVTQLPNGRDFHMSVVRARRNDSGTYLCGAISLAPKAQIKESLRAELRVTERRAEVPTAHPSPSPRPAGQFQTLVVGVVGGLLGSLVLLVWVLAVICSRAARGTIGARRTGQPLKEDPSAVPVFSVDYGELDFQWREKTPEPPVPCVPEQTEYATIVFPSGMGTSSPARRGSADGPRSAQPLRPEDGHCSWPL
# Details: background section; read-out: Kd-value of antibody drug targeting PD-1
molecule,measurement,value
B1,Kd,3.31 nM
